# Data reported in publication PMC2734569, “Functional mapping of the fission yeast DNA polymerase δ B-subunit Cdc1 by site-directed and random pentapeptide insertion mutagenesis” (BMC Molecular Biology, 2009).
# Numbering of substitutions follows the chain as printed.
# T1: Cdc1-J8 (Schizosaccharomyces pombe, UniProt P87324 1-462, Lys-GlyValProLeuLys-Pro)
# T1 construct: Cdc1, S. pombe, with a pentapeptide inserted after residue 83; also called J19; source: yeast two-hybrid fusion, in S. cerevisiae CTY10-5d
# T1 sequence (looked up): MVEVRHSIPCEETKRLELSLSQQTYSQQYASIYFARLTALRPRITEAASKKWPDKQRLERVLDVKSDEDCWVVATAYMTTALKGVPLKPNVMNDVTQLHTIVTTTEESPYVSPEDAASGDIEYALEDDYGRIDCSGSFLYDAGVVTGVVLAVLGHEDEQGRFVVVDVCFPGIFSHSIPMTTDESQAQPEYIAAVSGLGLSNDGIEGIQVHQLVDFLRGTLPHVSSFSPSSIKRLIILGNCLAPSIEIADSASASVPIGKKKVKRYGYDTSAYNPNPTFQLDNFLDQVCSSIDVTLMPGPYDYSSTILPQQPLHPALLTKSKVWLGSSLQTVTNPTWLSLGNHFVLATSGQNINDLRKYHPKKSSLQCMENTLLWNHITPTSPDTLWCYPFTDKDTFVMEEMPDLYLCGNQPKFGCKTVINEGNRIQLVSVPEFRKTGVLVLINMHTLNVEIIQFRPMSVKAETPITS
# T2: Cdc1-J12 (Schizosaccharomyces pombe, UniProt P87324 1-462, Ser-GlyValProHisSer-Ile)
# T2 construct: Cdc1, S. pombe, with a pentapeptide inserted after residue 7; source: yeast two-hybrid fusion, in S. cerevisiae CTY10-5d
# T2 sequence (looked up): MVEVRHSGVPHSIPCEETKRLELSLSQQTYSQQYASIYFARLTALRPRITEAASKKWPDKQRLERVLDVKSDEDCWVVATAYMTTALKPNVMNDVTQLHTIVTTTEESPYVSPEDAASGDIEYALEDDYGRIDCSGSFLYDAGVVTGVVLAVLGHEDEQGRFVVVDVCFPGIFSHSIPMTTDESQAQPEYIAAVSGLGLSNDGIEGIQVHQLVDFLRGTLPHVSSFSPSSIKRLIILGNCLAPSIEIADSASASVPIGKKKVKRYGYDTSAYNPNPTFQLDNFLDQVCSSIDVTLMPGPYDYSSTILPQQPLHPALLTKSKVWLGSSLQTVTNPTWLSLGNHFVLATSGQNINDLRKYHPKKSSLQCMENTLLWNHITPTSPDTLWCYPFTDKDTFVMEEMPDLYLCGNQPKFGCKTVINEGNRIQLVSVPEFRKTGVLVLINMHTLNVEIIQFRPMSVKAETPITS
# T3: Cdc1-E4 (Schizosaccharomyces pombe, UniProt P87324 1-462, Cys-GlyValProProCys-Glu)
# T3 construct: Cdc1, S. pombe, with a pentapeptide inserted after residue 10; source: yeast two-hybrid fusion, in S. cerevisiae CTY10-5d
# T3 sequence (looked up): T2 sequence (looked up) with G8I, V9P, P10C, H11G, S12V, I13P
# T4: Cdc1-J10 (Schizosaccharomyces pombe, UniProt P87324 1-462, Tyr-ArgGlyThrProTyr-Met)
# T4 construct: Cdc1, S. pombe, with a pentapeptide inserted after residue 77; also called J11; E6; source: yeast two-hybrid fusion, in S. cerevisiae CTY10-5d
# T4 sequence (looked up): T1 sequence (looked up) with M78R, T79G, A81P, L82Y, K83M, G84T, V85T, P86A
# B1: Cdc27 (fission yeast DNA polymerase delta C-subunit) (natural protein, Schizosaccharomyces pombe, UniProt P30261 1-372, looked up)
# chain: MEEWRNFLDIKVINESSLVTVDNLSLQLDISSEKAQEYLNMFYQGNDFLYPIYLIHGQPIDDEINLEIDEESQPISNFPVLQYILCDKSSLQEKQSRLKSGYKTVIFALSSAPLSDFDELLPAVYEIREKDVLYKKEDADKYGFIFNENSVPRVLKKAPSTHSPQLSVPSKTSTIDKTDTRSTEKTKGKDIFSNARNQKGNSSRKNKKAPLENHKEKEPLLPKEEKLSEQAKRERDDLKNIMQLEDESVSTTSVHDSEDDNLDSNNFQLEIGTEAKSAAPDEPQEIIKSVSGGKRRGKRKVKKYATTKDEEGFLVTKEEEVWESFSEDENISTGTSNVVRNKPTTVNIATKKKNTAQSKPQQKSIMSFFGKK
# notes: DNA polymerase delta C-subunit Cdc27, S. pombe; prey plasmid pGAD2F-Cdc27; also called pGAD2F-Cdc27; source: yeast two-hybrid fusion, in S. cerevisiae CTY10-5d
# Experiments:
# Test in all cases: two-hybrid; LexA-Cdc1 bait (pBTM116 or pBTM116BN) with Gal4 activation domain-Cdc27 prey (pGAD2F-Cdc27) in S. cerevisiae CTY10-5d; ONPG liquid culture beta-galactosidase assay, mean of triplicates, as percent of wild-type Cdc1
# Details in all cases: partners not purified
# Cdc1-J8 = target: T1, Cdc1-J8
# Cdc1-J12 = target: T2, Cdc1-J12
# Cdc1-E4 = target: T3, Cdc1-E4
# Cdc1-J10 = target: T4, Cdc1-J10
binder,measurement,setting,value
B1,"two-hybrid beta-galactosidase activity, % of wild-type Cdc1",Cdc1-J8,128%
same,"two-hybrid beta-galactosidase activity, % of wild-type Cdc1",Cdc1-J12,59%
same,"two-hybrid beta-galactosidase activity, % of wild-type Cdc1",Cdc1-E4,62%
same,"two-hybrid beta-galactosidase activity, % of wild-type Cdc1",Cdc1-J10,30%
